Read-outs that look alike come from different tables or passages of the source. Where no end group is shown, it is not given here. [ ]: non-standard residue; d: D form. Orn = NCCC[C@H](N)C(=O)O; Nva = CCC[C@H](N)C(=O)O

In experiment [1] the target is T1, HLA-A*0201 (human).
T1 construct: Empty class I on TAP-deficient T2 cells, stabilised by the added peptide; also called HLA-A2; MHC class I (A2 allele) on T2 cells
Nature of the experiment: T2 cell binding, flow cytometry. (In general: A flow cytometer gives signals particle by particle.)

The target of experiment [2] is T2, HLA-A*0201 class I monomer (ITOPIA Epitope Discovery System plates).
T2 construct: Bought kit; for the PSMA series only HLA-A2 is implied; also called MHC monomer; HLA-A2
Nature of the experiment: iTopia affinity assay (ED50).

Experiment [3] has as its target T2, HLA-A*0201 class I monomer (ITOPIA …). Nature of the experiment: iTopia affinity assay.
The target is the same in experiment [4]. Nature of the experiment: iTopia binding assay.
For experiment [5], the target named is T1, HLA-A*0201. Nature of the experiment: T2 cell binding, flow cytometry; half-maximal binding.
In experiment [6] the target is T1, HLA-A*0201. Nature of the experiment: T2 cell binding, flow cytometry. This is another data set of the same source.

With KLSEKIFYVX (Nle, norleucine, at position 10 (50)) [SSX-2 41-50(A42L, Y50(Nle))], the binding result with HLA-A*0201 [1] is “binds”.

With S[Nva]LQHLIGL [PRAME425-433 analog, Nva at P2], the “fold reduction of affinity against the native peptide” value in experiment [2] is around 3 fold.

Turning to KLSEKIFYVL [SSX-2 41-50(A42L, Y50L)], the binding result with HLA-A*0201 [1] is “binds”.

For KLSEKIFYVV [SSX-2 41-50(A42L, Y50V)], the binding result with HLA-A*0201 [1] is listed as “binds”.

On to SLLQHLIGA [PRAME425-433 analog, Ala at PO], for which the binding result in experiment [3] was “binds”.

For the molecule KLLQHLIGL (also called Lys P1 analog) [PRAME425-433 analog, Lys at P1], the binding result in experiment [4] is recorded as “binds”.

As for [Orn]LLQHLIGL [PRAME425-433 analog, Orn at P1], the binding result in experiment [4] was “binds”.

As to FLLMWITQC (also called Substitution of S157 with F) [NY-ESO-1 157-165 S157F], the binding result in the experiment with HLA-A*0201 [1] is listed as “binds”.

With KLLMWITQC (also called Substitution of S157 with K) [NY-ESO-1 157-165 S157K], the binding result with HLA-A*0201 [1] is reported as “binds”.

Usually EC50 stands for the concentration needed to bring the measured effect to its halfway point. Low readings indicate a more potent agent, high ones a less potent agent. In the case of FVSEKIFYM [SSX2 41-49 (K41F, A42V, V49M)], in the experiment with HLA-A*0201 [5], the response was half-maximal at 17.8 µM (EC50).

Regarding KLSEKIFYI [SSX2 41-49(A42L, V49I)], the EC50 with HLA-A*0201 [5] is 5.68 µM. This EC50 lies about 3.1-fold lower than the previous one.

With KVSEKIFYI [SSX2 41-49(A42V, V49I)], the EC50 with HLA-A*0201 [5] was found to be 13.9 µM. This EC50 is about 2.4-fold higher than that of the molecule before.

As to KASEKIFYI [SSX2 41-49(V49I)], the EC50 with HLA-A*0201 [5] amounted to 14 µM.

In the case of XLLQHLIGL (Hse (homoserine) at P1) [PRAME425-433 analog, Hse at P1], the binding result in experiment [4] is “binds”.

Take KASEKIFYX (C-terminal amide) [SSX2 41-49-NH2]: the binding result with HLA-A*0201 [6] is “no binding”.

Turning to KLSEKIFYVX (Nva, norvaline, at position 10 (50)) [SSX-2 41-50(A42L, Y50(Nva))], the binding result with HLA-A*0201 [1] is reported as “binds”.
